In general, Kd refers to the constant that tells how readily two partners part at equilibrium. High values mean a looser complex, low ones a tighter complex. Broadly, the stoichiometry N is a count of units in the complex or per binding partner.

Seven molecules from doi:10.1101/812099 (bioRxiv, 2019) can be followed below.

The labels stand for the following.
B1: Kapβ2(ΔLoop) (natural protein)
chain: MEYEWKPDEQGLQQILQLLKESQSPDTTIQRTVQQKLEQLNQYPDFNNYLIFVLTKLKSEDEPTRSLSGLILKNNVKAHFQNFPNGVTDFIKSECLNNIGDSSPLIRATVGILITTIASKGELQNWPDLLPKLCSLLDSEDYNTCEGAFGALQKICEDSAEILDSDVLDRPLNIMIPKFLQFFKHSSPKIRSHAVACVNQFIISRTQALMLHIDSFIENLFALAGDEEPEVRKNVCRALVMLLEVRMDRLLPHMHNIVEYMLQRTQDQDENVALEACEFWLTLAEQPICKDVLVRHLPKLIPVLVNGMKYSDIDIILLKGGGSGGSGSDWNLRKCSAAALDVLANVYRDELLPHILPLLKELLFHHEWVVKESGILVLGAIAEGCMQGMIPYLPELIPHLIQCLSDKKALVRSITCWTLSRYAHWVVSQPPDTYLKPLMTELLKRILDSNKRVQEAACSAFATLEEEACTELVPYLAYILDTLVFAFSKYQHKNLLILYDAIGTLADSVGHHLNKPEYIQMLMPPLIQKWNMLKDEDKDLFPLLECLSSVATALQSGFLPYCEPVYQRCVNLVQKTLAQAMLNNAQPDQYEAPDKDFMIVALDLLSGLAEGLGGNIEQLVARSNILTLMYQCMQDKMPEVRQSSFALLGDLTKACFQHVKPCIADFMPILGTNLNPEFISVCNNATWAIGEISIQMGIEMQPYIPMVLHQLVEIINRPNTPKTLLENTAITIGRLGYVCPQEVAPMLQQFIRPWCTSLRNIRDNEEKDSAFRGICTMISVNPSGVIQDFIFFCDAVASWINPKDDLRDMFCKILHGFKNQVGDENWRRFSDQFPLPLKERLAAFYGV
B2: GFP:hnRNPA2-LC (domain or fragment)
chain: MQEVQSSRSGRGGNFGFGDSRGGGGNFGPGPGSNFRGGSDGYGSGRGFGDGYNGYGGGPGGGNFGGSPGYGGGRGGYGGGGPGYGNQGGGYGGGYDNYGGGNYGSGNYNDFGNYNQQPSNYGPMKSGNFGGSRNMGGPYGGGNYGPGGSGGSGGYGGRSRY
B3: FUS(1-500) (domain or fragment)
chain: MASNDYTQQATQSYGAYPTQPGQGYSQQSSQPYGQQSYSGYSQSTDTSGYGQSSYSSYGQSQNTGYGTQSTPQGYGSTGGYGSSQSSQSSYGQQSSYPGYGQQPAPSSTSGSYGSSSQSSSYGQPQSGSYSQQPSYGGQQQSYGQQQSYNPPQGYGQQNQYNSSSGGGGGGGGGGNYGQDQSSMSSGGGSGGGYGNQDQSGGGGSGGYGQQDRGGRGRGGSGGGGGGGGGGYNRSSGGYEPRGRGGGRGGRGGMGGSDRGGFNKFGGPRDQGSRHDSEQDNSDNNTIFVQGLGENVTIESVADYFKQIGIIKTNKKTGQPMINLYTDRETGKLKGEATVSFDDPPSAKAAIDWFDGKEFSGNPIKVSFATRRADFNRGGGNGRGGRGRGGPMGRGGYGGGGSGGGGRGGFPSGGGGGGGQQRAGDWKCPNPTCENMNFSWRNECNQCKAPKPDGPGGGPGGSHMGGNYGDDRRGGRGGYDRGGYRGRGGDRGGFRGGRGG
B4: GFP:FUS-LC (domain or fragment)
chain: ASNDYTQQATQSYGAYPTQPGQGYSQQSSQPYGQQSYSGYSQSTDTSGYGQSSYSSYGQSQNTGYGTQSTPQGYGSTGGYGSSQSSQSSYGQQSSYPGYGQQPAPSSTSGSYGSSSQSSSYGQPQSGSYSQQPSYGGQQQSYGQQQSYNPPQGYGQQNQYNSSSGGGGGGGGGGNYGQDQSSMSSGGGSGGGYGNQDQSGGGGSGGYGQQDRG

The target in one experiment is T1, MBP-FUS (UniProt P35637 1-526).
T1 sequence: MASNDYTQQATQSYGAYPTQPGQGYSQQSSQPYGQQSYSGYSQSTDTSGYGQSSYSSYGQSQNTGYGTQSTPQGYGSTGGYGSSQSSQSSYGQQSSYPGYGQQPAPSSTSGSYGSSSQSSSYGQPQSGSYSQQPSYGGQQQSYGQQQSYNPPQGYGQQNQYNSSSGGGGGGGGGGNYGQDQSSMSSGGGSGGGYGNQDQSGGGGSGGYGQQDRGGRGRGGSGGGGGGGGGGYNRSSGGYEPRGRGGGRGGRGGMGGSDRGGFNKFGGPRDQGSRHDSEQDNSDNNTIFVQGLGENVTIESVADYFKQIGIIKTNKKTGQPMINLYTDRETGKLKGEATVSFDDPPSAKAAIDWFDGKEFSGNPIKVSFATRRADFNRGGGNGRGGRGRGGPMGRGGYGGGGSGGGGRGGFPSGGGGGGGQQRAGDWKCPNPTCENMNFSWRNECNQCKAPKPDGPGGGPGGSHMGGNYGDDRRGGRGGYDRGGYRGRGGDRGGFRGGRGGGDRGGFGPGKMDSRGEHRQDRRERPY
The experiment is described as follows: ITC.

The target in experiment [1] is T2, Kapβ2 (UniProt Q92973-2 1-890).
T2 sequence: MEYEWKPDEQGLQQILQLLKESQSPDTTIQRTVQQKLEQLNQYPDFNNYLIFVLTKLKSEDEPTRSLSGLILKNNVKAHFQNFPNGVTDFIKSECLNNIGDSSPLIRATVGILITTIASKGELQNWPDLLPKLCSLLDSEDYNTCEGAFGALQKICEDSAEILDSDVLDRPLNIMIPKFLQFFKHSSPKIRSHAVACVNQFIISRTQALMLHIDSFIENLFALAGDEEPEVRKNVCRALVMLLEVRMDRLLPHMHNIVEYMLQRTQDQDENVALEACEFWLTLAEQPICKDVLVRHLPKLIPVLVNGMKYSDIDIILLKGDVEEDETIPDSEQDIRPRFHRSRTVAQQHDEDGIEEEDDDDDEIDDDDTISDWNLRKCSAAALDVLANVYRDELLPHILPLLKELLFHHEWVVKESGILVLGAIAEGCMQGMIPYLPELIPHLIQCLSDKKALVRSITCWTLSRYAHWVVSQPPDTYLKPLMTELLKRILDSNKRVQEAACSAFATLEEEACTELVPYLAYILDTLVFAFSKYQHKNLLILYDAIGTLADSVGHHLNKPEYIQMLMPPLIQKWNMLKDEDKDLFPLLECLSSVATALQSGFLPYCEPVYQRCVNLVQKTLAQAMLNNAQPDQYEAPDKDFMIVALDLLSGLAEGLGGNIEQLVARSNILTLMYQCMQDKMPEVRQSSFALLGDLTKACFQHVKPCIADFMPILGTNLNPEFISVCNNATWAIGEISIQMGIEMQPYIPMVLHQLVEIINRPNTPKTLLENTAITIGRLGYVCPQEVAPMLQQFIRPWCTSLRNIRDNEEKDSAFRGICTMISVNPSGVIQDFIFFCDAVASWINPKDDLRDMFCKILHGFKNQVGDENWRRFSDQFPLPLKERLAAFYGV
The experiment is described as follows: pull-down.

The experiment “Kapβ2(ΔLoop)” deals with B1. The experiment is described as follows: ITC. In general terms: Isothermal titration calorimetry measures the heat released or taken up as one component is titrated into another.
A further experiment concerns the target T3, GST-Kapβ2 (UniProt Q92973-2 1-890).
T3 sequence: T2 sequence
The experiment is described as follows: pull-down.

The target of experiment [2] is T2, Kapβ2. The experiment is described as follows: hydrogel binding assay.
Experiment [3] concerns the target T2, Kapβ2. The experiment is described as follows: NMR titration.
For the next experiment, the target named is T4, FUS-LC fused to mCherry (UniProt P35637 2-214).
T4 sequence: B4 chain
The experiment is described as follows: hydrogel binding assay.

With B1, in the experiment with MBP-FUS, the binding result was “binds”.

Regarding PRPRPRPRPRPRPRPRPRPRPRPRPRPRPRPRPRPR [GST-PR18], in the experiment with Kapβ2 [1], the binding result is reported as “binds”.

For the molecule PRPRPRPRPRPRPRPRPRPRPRPRPRPRPRPRPRPR [MBP-PR18], in the experiment with Kapβ2(ΔLoop), the Kd amounted to 81.3 nM and the “stoichiometry N” value came out at 1. Further, the binding result with GST-Kapβ2 was “binds”.

As to B2, in the experiment with Kapβ2 [2], the binding result was “binds”.

For B3, the binding result in the experiment with Kapβ2 [3] is “binds”.

As to B4, in the experiment with FUS-LC fused to mCherry, the binding result is listed as “binds”.

Take PRPRPRPRPRPRPRPRPRPRPRPRPRPRPRPRPRPRPRPR [(Pro-Arg)20-HA]: the binding result with Kapβ2 [3] was “binds”.
